Source: the supplement of paper PMC10567573

B1: FBXO39 (parent)
chain: PSRVHASEVESAVWYVKKFGRYLE

Variants of: B1
Test: protein stability index of a GFP-peptide fusion (GPS, HEK-293T) (PSI 1-6); higher = more stable
Details: c terminus: a fixed tail appended
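Note: lentivirally expressed fusions sorted by FACS into six bins by GFP to DsRed ratio, PSI derived from sequencing read proportions per bin multiplied by bin number.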

Row | Variant | protein stability index
1 | E10K | 2.21
2 | E10G | 1.41
3 | E10F | 2.31
4 | E10R | 2.37
5 | E10H | 1.65
6 | E10I | 1.85
7 | E10C | 1.99
8 | E10S | 2.51
9 | E10Q | 2.17
10 | E10L | 3.06
11 | E10D | 1.84
12 | E10V | 1.54
13 | E10A | 1.64
14 | E10M | 1.49
15 | E10Y | 2
16 | E10P | 2.04
17 | E10T | 2.69
18 | E10N | 1.66
19 | V4A | 2.29
20 | V4Y | 1.34
21 | V4G | 2.19
22 | V4I | 2.39
23 | V4T | 1.65
24 | V4L | 2.22

Row | Variant | protein stability index
25 | V4S | 1.58
26 | V4D | 2.52
27 | V4F | 1.54
28 | V4P | 1.92
29 | V4N | 2.13
30 | V4Q | 2.21
31 | V4K | 1.63
32 | V4H | 2.25
33 | V4C | 1.49
34 | V4R | 1.8
35 | V4W | 2.06
36 | V4M | 1.97
37 | V4E | 2.52
38 | W14I | 2.38
39 | W14T | 3.68
40 | W14S | 3.22
41 | W14A | 2.96
42 | W14E | 2.8
43 | W14P | 2.96
44 | W14V | 2.64
45 | W14L | 2.32
46 | W14F | 1.73
47 | W14K | 2.67
48 | W14R | 2.58

Row | Variant | protein stability index
49 | W14N | 3.68
50 | W14Q | 2.87
51 | W14C | 3.17
52 | W14H | 3.44
53 | W14G | 2.89
54 | W14D | 3.84
55 | W14M | 3.3
56 | W14Y | 2.18
57 | A12S | 2.18
58 | A12L | 2.08
59 | A12P | 2.25
60 | A12Q | 3.27
61 | A12R | 2.54
62 | A12N | 3.01
63 | A12I | 2.34
64 | A12E | 3.02
65 | A12V | 1.29
66 | A12F | 1.28
67 | A12Y | 1.65
68 | A12M | 2.16
69 | A12K | 2
70 | A12T | 2.08
71 | A12H | 2.83
72 | A12C | 1.49

Row | Variant | protein stability index
73 | A12G | 2.02
74 | A12W | 2.98
75 | A12D | 2.13
76 | Y15H | 2.65
77 | Y15V | 1.41
78 | Y15F | 1.42
79 | Y15I | 1.58
80 | Y15A | 2.07
81 | Y15P | 2.61
82 | Y15G | 2.84
83 | Y15S | 2.4
84 | Y15T | 2.09
85 | Y15Q | 2.74
86 | Y15R | 2.21
87 | Y15E | 2.45
88 | Y15L | 2.34
89 | Y15K | 2.53
90 | Y15D | 3.73
91 | Y15W | 1.15
92 | Y15C | 1.74
93 | Y15N | 3.31
94 | Y15M | 2.9
95 | S11R | 2.07
96 | S11C | 2.4

Row | Variant | protein stability index
97 | S11G | 1.84
98 | S11D | 2.49
99 | S11F | 1.74
100 | S11T | 2.03
101 | S11H | 2.08
102 | S11P | 1.95
103 | S11I | 2.1
104 | S11E | 2.57
105 | S11N | 1.97
106 | S11M | 2.17
107 | S11A | 2.03
108 | S11V | 1.57
109 | S11L | 1.99
110 | S11Y | 2.07
111 | S11K | 2.91
112 | S11W | 1.54
113 | S11Q | 1.64
114 | E8C | 2.27
115 | E8L | 2.36
116 | E8N | 1.56
117 | E8P | 2.75
118 | E8S | 1.68
119 | E8T | 1.7
120 | E8M | 3.03

Row | Variant | protein stability index
121 | E8H | 2.38
122 | E8Q | 1.85
123 | E8W | 1.42
124 | E8K | 2.76
125 | E8R | 3.41
126 | E8I | 2.11
127 | E8A | 3.81
128 | E8F | 4.46
129 | E8V | 1.46
130 | E8G | 1.7
131 | E8Y | 3.1
132 | E8D | 2.08
133 | V16R | 3.17
134 | V16I | 1.72
135 | V16M | 2.65
136 | V16E | 2.96
137 | V16W | 2.27
138 | V16H | 3.32
139 | V16P | 2.54
140 | V16D | 3.18
141 | V16T | 2.43
142 | V16A | 2.4
143 | V16Q | 2.5
144 | V16G | 2.81

Row | Variant | protein stability index
145 | V16F | 1.83
146 | V16L | 1.87
147 | V16Y | 2.44
148 | V16C | 2.65
149 | V16S | 3.08
150 | V16N | 3.18
151 | V16K | 3.01
152 | A6D | 2.46
153 | A6F | 3.3
154 | A6C | 2.08
155 | A6S | 2.72
156 | A6I | 2.06
157 | A6K | 1.79
158 | A6E | 2.32
159 | A6M | 1.27
160 | A6W | 2.48
161 | A6N | 1.74
162 | A6H | 1.76
163 | A6Y | 1.58
164 | A6Q | 2.11
165 | A6T | 2.4
166 | A6R | 1.56
167 | A6V | 1.7
168 | A6G | 1.97

Row | Variant | protein stability index
169 | A6P | 1.82
170 | A6L | 2.24
171 | P1Q | 3.14
172 | P1W | 2.5
173 | P1S | 1.52
174 | P1Y | 1.63
175 | P1R | 1.71
176 | P1V | 1.7
177 | P1T | 2.01
178 | F19A | 2.77
179 | F19H | 3.06
180 | F19E | 3.76
181 | F19D | 3.27
182 | F19C | 2.04
183 | F19G | 3.17
184 | K18L | 1.79
185 | K18V | 1.75
186 | K18T | 1.73
187 | K18Q | 1.75
188 | K18S | 1.81
189 | K18P | 2.07
190 | K18R | 1.5
191 | K18Y | 1.47
192 | K18D | 2.33

Row | Variant | protein stability index
193 | K18N | 1.88
194 | K18F | 1.95
195 | K18W | 2.4
196 | K18E | 2.37
197 | K18I | 2.93
198 | K18M | 1.82
199 | K18C | 2.36
200 | K18H | 1.89
201 | K18A | 1.65
202 | K18G | 2.02
203 | K17F | 1.87
204 | K17W | 1.61
205 | K17L | 2.52
206 | K17R | 3.25
207 | K17N | 2.82
208 | K17Y | 2.66
209 | K17M | 1.91
210 | K17G | 2.57
211 | K17I | 2.39
212 | K17E | 2.35
213 | K17H | 2.1
214 | K17T | 1.77
215 | K17C | 1.34
216 | K17P | 1.89

Row | Variant | protein stability index
217 | K17A | 2
218 | K17Q | 2.27
219 | K17S | 2.84
220 | K17V | 1.9
221 | K17D | 2.25
222 | R3H | 1.98
223 | R3C | 1.88
224 | R3V | 2.36
225 | R3I | 2.18
226 | R3G | 2.29
227 | R3M | 2.54
228 | R3K | 1.83
229 | R3P | 2.49
230 | R3W | 2.4
231 | R3F | 1.49
232 | R3T | 3.32
233 | R3D | 2.9
234 | R3A | 2.04
235 | R3S | 2.1
236 | R3L | 1.72
237 | R3Y | 1.58
238 | R3E | 2.04
239 | R3Q | 2.46
240 | R3N | 2.19

Row | Variant | protein stability index
241 | S2V | 1.46
242 | S2Q | 2.18
243 | S2W | 1.89
244 | S2Y | 2.48
245 | S2R | 1.82
246 | S2H | 1.76
247 | S2K | 2.67
248 | S2N | 2.51
249 | S2F | 1.64
250 | S2D | 2.19
251 | S2E | 2.29
252 | S2T | 2.31
253 | S2P | 2.05
254 | S2I | 2.33
255 | S2G | 1.94
256 | S2L | 1.63
257 | S2A | 1.71
258 | S2M | 2.08
259 | V13M | 2.13
260 | V13I | 1.61
261 | V13A | 2.44
262 | V13D | 2.9
263 | V13N | 3.09
264 | V13C | 1.95

Row | Variant | protein stability index
265 | V13F | 1.45
266 | V13T | 1.96
267 | V13E | 2.96
268 | V13Y | 1.43
269 | V13Q | 2.73
270 | V13P | 3.59
271 | V13G | 2.4
272 | V13W | 1.6
273 | V13R | 2.17
274 | V13H | 2.72
275 | V13K | 1.78
276 | V13L | 2.5
277 | V13S | 2.57
278 | V9P | 2.33
279 | V9R | 2.34
280 | V9E | 3.31
281 | V9Q | 2.35
282 | V9D | 2.96
283 | V9I | 2.01
284 | V9T | 2.33
285 | V9C | 2.48
286 | V9G | 3.35
287 | V9N | 2.56
288 | V9W | 1.61

Row | Variant | protein stability index
289 | V9K | 1.92
290 | V9F | 1.62
291 | V9S | 2.62
292 | V9Y | 1.94
293 | V9A | 2.09
294 | V9L | 1.83
295 | V9H | 2.29
296 | V9M | 1.92
297 | S7T | 1.77
298 | S7Q | 2.36
299 | S7E | 2.09
300 | S7M | 1.81
301 | S7N | 2.12
302 | S7F | 1.97
303 | S7P | 2.33
304 | S7L | 1.64
305 | S7Y | 2.4
306 | S7W | 1.59
307 | S7R | 1.48
308 | S7V | 2.13
309 | S7G | 1.66
310 | S7C | 1.48
311 | S7D | 2.68
312 | S7I | 1.84

Row | Variant | protein stability index
313 | S7A | 2.22
314 | S7H | 2.24
315 | S7K | 1.67
316 | H5C | 1.61
317 | H5E | 3.31
318 | H5Q | 2.69
319 | H5L | 2.49
320 | H5Y | 1.43
321 | H5V | 1.68
322 | H5N | 2.36
323 | H5R | 1.36
324 | H5G | 2.26
325 | H5A | 2.11
326 | H5S | 2.05
327 | H5T | 1.43
328 | H5W | 2.86
329 | H5F | 2.02
330 | H5P | 2
331 | H5K | 1.4
332 | H5D | 2.52
333 | H5I | 1.39
334 | H5M | 1.86
